# Source: article PMC6156607
# Molecular target: Full-length human RAB5 (RAB5A), purified, fluorescently labelled (human) (UniProt P20339)
# Assay: MST
# Chain of UniProt P20339 (P20339 whole entry): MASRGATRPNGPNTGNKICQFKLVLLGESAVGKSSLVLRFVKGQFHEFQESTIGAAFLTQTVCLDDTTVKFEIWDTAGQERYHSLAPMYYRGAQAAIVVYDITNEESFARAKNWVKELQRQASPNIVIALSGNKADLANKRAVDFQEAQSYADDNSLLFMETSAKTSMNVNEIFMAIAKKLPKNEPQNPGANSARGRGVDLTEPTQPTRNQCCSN
substance,measurement,value
"6x His-tagged Etf-2^ΔHY (Etf-2 lacking the hydrophobic domain, amino acids 132-151) (natural protein)",Kd,21.3 nM
